Experimental findings from US11052132B2, “Methods and compositions for treating cystic fibrosis” (PHASEBIO PHARMACEUTICALS, INC., priority 2014, dated 2021) are described below.

The target of assay [1] is T1, F508del-CFTR (Homo sapiens, UniProt P13569, DEL508-508).
T1 construct: A human nasal epithelial cell line JME/CF15, derived from a Cystic Fibrosis patient homozygous for the F508del mutation; endogenous in cells; host or cells: JME/CF15 human nasal epithelial cell line (CF patient, F508del homozygous)
The assay is described as follows: Iodide efflux assay on JME/CF15 cells (rescue of F508del-CFTR function). The format is cell-based. Conditions: for effect on iodide efflux, alone / plateau concentration (iodide efflux rate) / EC50: JME/CF15 cells at 37° C.; for effect on iodide efflux, alone: acute treatment with 1 μM VX770 alone (FIG. 6A); for effect on iodide efflux in combination with VX-770: 350 nM PB1046 18 hours or 140 nM PB1120 24 hours, plus acute 1 μM VX-770 (FIG. 6B, C); for correct and/or potentiate the activity of F508del-CFTR (iodide efflux) compared with VX-809 and VX-661: 37° C., 900 nM VIP 24 h, 1 μM PB1120 24 h, 1.2 μM PB1046 18 h, versus 1 μM VX809 24 h, 3 μM VX661 24 h (FIG. 5); for plateau concentration (iodide efflux rate) / EC50: pre-incubated 2 hours at 30-3,500 nM, then cAMP activator cocktail, n=3-5; for EC50: read-out: EC50 (iodide efflux rate). The method, then:
A human nasal epithelial cell line JME/CF15, derived from a Cystic Fibrosis patient homozygous for the F508del mutation (Jefferson (1990)) was used to evaluate the effect of VIP compounds on CFTR protein function. Cells were cultured at 37° C. with at 5% CO2— 95% humidity in DMEM-F12 with 10% FBS and supplemented with transferrin (5 μg/ml), triiodothyronine (2 nM), insulin (5 μg/ml), hydrocortisone (1.1 μM), EGF (1.64 nM), epinephrine (5.5 μM), and adenine (18 μM). Cells were maintained at 37° C. and incubated with […] VIP, 1.2 μM PB1046 (SEQ ID NO: 15), or 1 μM PB1120 (SEQ ID NO: 20) for 18 or 24 hours before the assaying for iodide efflux. For comparison, cells were incubated with the CFTR correctors VX-809 (lumacaftor) or VX-661.
To evaluate the effect of test compounds on CFTR protein function, the activity of the CFTR chloride channel was determined by studying the efflux of iodide ions using an iodide sensitive electrode. Cells were incubated with NaI loading buffer (136 mM NaI, 3 mM KNO3, 2 mM Ca(NO3), 11 mM glucose, 20 mM HEPES, pH 7.4) for 1 hour at room temperature. Extracellular NaI solution was then removed and replaced with efflux buffer in which NaI was replaced with NaNO3. Samples were taken and replaced at 1 minute intervals. The first 3 samples taken before addition of the CFTR activation cocktail (time 0-2 min) were used to establish a stable baseline of ion efflux. CFTR activation cocktail (150 μM cpt-cAMP+1 mM IBMX+10 μM forskolin) was included in the efflux buffer from time 3 minutes. NaI concentration was then measured using an iodide sensitive electrode moved over each sample by a computerised autosampler and the NaI efflux rate constant k (min^−1) was calculated. Iodide efflux peaks (maximum efflux rate during stimulation—basal level) were compared.
Iodide efflux rates were measured on JME/CF15 cells maintained at 37° C. and pre-incubated with VIP, PB1046, or PB1120 at 30-3,500 nM for 2 hours. […] Rescued F508del-CFTR was stimulated by a cAMP activator cocktail added to the efflux buffer. […] CFTRinh172 (20 μM) was included in the incubation, confirming that the iodide efflux was mediated by CFTR.
To study the effects of administration of PB1120 or PB1046 together with CFTR potentiators or CFTR correctors, iodide efflux assays were performed as described in Example 1.

Assay [2] concerns F508del-CFTR. Put plainly: Immunoblotting / immunostaining of F508del-CFTR maturation and membrane expression in JME/CF15 cells. It is filed as cell-based, human. Conditions: JME/CF15 cells at 37° C., incubated with compound for 24 hours (FIG. 4). How it is done: JME/CF15 cells were immunostained for CFTR (A).
Immunoblotting was performed to visualize the […] of the F508del-CFTR in the epithelial cells treated with VIP, PB1120, or PB1046.

T1 sequence (P13569 with tags, fused parts or gaps DEL508-508): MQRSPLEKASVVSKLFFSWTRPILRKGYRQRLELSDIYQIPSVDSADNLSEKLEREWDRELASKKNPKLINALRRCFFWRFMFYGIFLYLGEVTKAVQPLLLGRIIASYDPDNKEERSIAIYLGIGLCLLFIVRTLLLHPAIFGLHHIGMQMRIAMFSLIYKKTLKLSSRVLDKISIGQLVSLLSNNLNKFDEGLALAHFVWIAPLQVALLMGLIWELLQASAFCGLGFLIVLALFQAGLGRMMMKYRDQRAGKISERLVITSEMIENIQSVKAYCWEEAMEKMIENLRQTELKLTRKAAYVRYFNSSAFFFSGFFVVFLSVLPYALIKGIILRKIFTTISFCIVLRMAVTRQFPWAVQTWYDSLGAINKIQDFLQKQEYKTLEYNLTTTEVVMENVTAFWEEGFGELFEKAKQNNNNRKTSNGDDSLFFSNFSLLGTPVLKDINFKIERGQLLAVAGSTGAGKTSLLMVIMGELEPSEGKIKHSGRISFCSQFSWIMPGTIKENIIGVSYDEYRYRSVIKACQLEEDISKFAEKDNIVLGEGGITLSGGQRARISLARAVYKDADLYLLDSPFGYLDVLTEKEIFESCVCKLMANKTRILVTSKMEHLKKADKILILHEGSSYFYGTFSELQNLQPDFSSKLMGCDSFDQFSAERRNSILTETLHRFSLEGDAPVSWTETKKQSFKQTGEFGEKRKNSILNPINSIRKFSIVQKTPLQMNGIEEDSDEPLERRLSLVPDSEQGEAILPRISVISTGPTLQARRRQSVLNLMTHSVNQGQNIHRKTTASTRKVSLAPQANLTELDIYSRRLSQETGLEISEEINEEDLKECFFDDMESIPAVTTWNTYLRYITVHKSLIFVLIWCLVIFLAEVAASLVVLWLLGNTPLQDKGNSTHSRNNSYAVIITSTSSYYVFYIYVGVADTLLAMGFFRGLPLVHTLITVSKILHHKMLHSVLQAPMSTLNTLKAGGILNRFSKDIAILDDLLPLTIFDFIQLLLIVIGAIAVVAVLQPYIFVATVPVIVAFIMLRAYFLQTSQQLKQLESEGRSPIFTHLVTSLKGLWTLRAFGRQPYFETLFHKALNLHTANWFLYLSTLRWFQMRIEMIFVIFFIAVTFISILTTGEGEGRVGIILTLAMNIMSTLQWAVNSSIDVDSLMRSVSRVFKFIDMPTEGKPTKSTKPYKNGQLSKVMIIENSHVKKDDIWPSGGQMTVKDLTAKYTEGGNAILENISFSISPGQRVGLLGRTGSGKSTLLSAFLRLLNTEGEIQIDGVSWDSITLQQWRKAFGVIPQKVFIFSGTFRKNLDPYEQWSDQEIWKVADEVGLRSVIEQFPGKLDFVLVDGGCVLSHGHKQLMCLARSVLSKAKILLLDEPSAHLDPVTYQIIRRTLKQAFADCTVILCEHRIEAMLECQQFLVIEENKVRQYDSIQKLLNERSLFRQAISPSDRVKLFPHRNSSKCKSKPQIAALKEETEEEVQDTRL

For the molecule `CC(C)(C)c1cc(C(C)(C)C)c(NC(=O)c2c[nH]c3ccccc3c2=O)cc1O` [VX-770, ivacaftor, reference compound], the “effect on iodide efflux, alone” value at F508del-CFTR [1] is recorded as “no effect”; on F508del-CFTR [1] (listed as VX770), “did not produce any significant stimulation”.

Take `O=C(O)c1ccc(/C=C2\SC(=S)N(c3cccc(C(F)(F)F)c3)C2=O)cc1` [CFTRinh172, reference compound]: the “iodide efflux activity rescued by VIP therapeutics when the CFTR inhibitor is included” value at F508del-CFTR [1] (CFTRinh172 20 μM, 30 minutes before and during the efflux experiments (FIG. 3)) is “significantly reduced”.

B1: PB1120: long lasting, stable VIP therapeutic which includes ELP sequences; VIP-ELP fusion, SEQ ID NO: 20 (protein)
chain: HSDAVFTDNYTRLRKQMAVKKYLNSILNVPGVGVPGVGVPGGGVPGAGVPGVGVPGVGVPGVGVPGGGVPGAGVPGGGVPGVGVPGVGVPGGGVPGAGVPGVGVPGVGVPGVGVPGGGVPGAGVPGGGVPGVGVPGVGVPGGGVPGAGVPGVGVPGVGVPGVGVPGGGVPGAGVPGGGVPGVGVPGVGVPGGGVPGAGVPGVGVPGVGVPGVGVPGGGVPGAGVPGGGVPGVGVPGVGVPGGGVPGAGVPGVGVPGVGVPGVGVPGGGVPGAGVPGGGVPGVGVPGVGVPGGGVPGAGVPGVGVPGVGVPGVGVPGGGVPGAGVPGGGVPGVGVPGVGVPGGGVPGAGVPGVGVPGVGVPGVGVPGGGVPGAGVPGGGVPGVGVPGVGVPGGGVPGAGVPGVGVPGVGVPGVGVPGGGVPGAGVPGGGVPGVGVPGVGVPGGGVPGAGVPGVGVPGVGVPGVGVPGGGVPGAGVPGGGVPGVGVPGVGVPGGGVPGAGVPGVGVPGVGVPGVGVPGGGVPGAGVPGGGVPGVGVPGVGVPGGGVPGAGVPGVGVPGVGVPGVGVPGGGVPGAGVPGGGVPGVGVPGVGVPGGGVPGAGVPGVGVPGVGVPGVGVPGGGVPGAGVPGGGVPGWP
modifications: VIP ELP1-120
Regarding B1, in the assay with F508del-CFTR [1], the “effect on iodide efflux in combination with VX-770” value was “synergistic effect”; the “correct and/or potentiate the activity of F508del-CFTR (iodide efflux) compared with VX-809 and VX-661” value was “equivalent or greater extent than VX-809 and VX-661”; the “plateau concentration (iodide efflux rate)” value turned out to be 1000 nM; the EC50 worked out at 0.14 µM. The “effect on iodide efflux in combination with VX-809” value with F508del-CFTR [1] (1 μM PB1120 and 1 μM VX-809 for 24 hours (FIG. 7)) is listed as “synergism”. In addition, the “F508del-CFTR maturation and membrane expression” value in the assay with F508del-CFTR [2] is “corrected”.

B2: PB1046: long lasting, stable VIP therapeutic which includes ELP sequences; VIP-ELP fusion, SEQ ID NO: 15 (protein)
chain: MHSDAVFTDNYTRLRKQMAVKKYLNSILNVPGVGVPGVGVPGGGVPGAGVPGVGVPGVGVPGVGVPGGGVPGAGVPGGGVPGVGVPGVGVPGGGVPGAGVPGVGVPGVGVPGVGVPGGGVPGAGVPGGGVPGVGVPGVGVPGGGVPGAGVPGVGVPGVGVPGVGVPGGGVPGAGVPGGGVPGVGVPGVGVPGGGVPGAGVPGVGVPGVGVPGVGVPGGGVPGAGVPGGGVPGVGVPGVGVPGGGVPGAGVPGVGVPGVGVPGVGVPGGGVPGAGVPGGGVPGVGVPGVGVPGGGVPGAGVPGVGVPGVGVPGVGVPGGGVPGAGVPGGGVPGVGVPGVGVPGGGVPGAGVPGVGVPGVGVPGVGVPGGGVPGAGVPGGGVPGVGVPGVGVPGGGVPGAGVPGVGVPGVGVPGVGVPGGGVPGAGVPGGGVPGVGVPGVGVPGGGVPGAGVPGVGVPGVGVPGVGVPGGGVPGAGVPGGGVPGVGVPGVGVPGGGVPGAGVPGVGVPGVGVPGVGVPGGGVPGAGVPGGGVPGVGVPGVGVPGGGVPGAGVPGVGVPGVGVPGVGVPGGGVPGAGVPGGGVPGVGVPGVGVPGGGVPGAGVPGVGVPGVGVPGVGVPGGGVPGAGVPGGGVPGWP
modifications: M-VIP ELP1-120
On to B2, for which, in the assay with F508del-CFTR [1], the “effect on iodide efflux in combination with VX-770” value is reported as “synergistic effect”; the “correct and/or potentiate the activity of F508del-CFTR (iodide efflux) compared with VX-809 and VX-661” value is “equivalent or greater extent than VX-809 and VX-661”; the “plateau concentration (iodide efflux rate)” value is listed as 1200 nM; the EC50 was found to be 0.355 µM. For the same molecule, in the assay on F508del-CFTR [2], the “F508del-CFTR maturation and membrane expression” value is “corrected”.
